Assay results as given in patent publication US20120316071A1 (published 2012).
Changes are numbered by the printed parent chain. In names and notes the source's numbering stands. One block for each binder: values may come before it.

Legend:
[1] = biological target: T1, Recombinant Human DLL4 (R&D Systems Cat#1506-D4/CF) (human, UniProt Q9NR61 27-524); experiment: ECL multispot (MSD) assay, antigen spotted on plate, Fab in solution; blank spot of this well 224
T1 construct: Bought recombinant protein; also called delta-like protein 4; rHuman DLL4

[2] = biological target: T2, rHuman EGF R/Fc Chimera, CF (R&D Systems Cat#344-ER) (human, UniProt P00533 25-645); experiment: as above
T2 construct: Bought recombinant protein; also called epidermal growth factor receptor

[3] = biological target: T3, rHuman Erythropoietin R/Fc Chimera, CF (R&D Systems Cat#963-ER) (human, UniProt P19235 25-250); experiment: as above
T3 construct: Bought recombinant protein; also called EPO R; EPO R/Fc

[4] = biological target: T4, rHuman P-Cadherin/Fc Chimera, CF (R&D Systems Cat#861-PC) (human, UniProt P22223 108-654); experiment: as above
T4 construct: Bought recombinant protein

[5] = biological target: T5, rHuman IGF-1 sR (insulin-like growth factor-1 soluble receptor), CF (R&D Systems Cat#391-GR) (human, UniProt P08069 31-932); experiment: as above
T5 construct: Bought recombinant soluble receptor

[6] = biological target: T6, rHuman CD44/Fc Chimera, CF (R&D Systems Cat#3660-CD) (human, UniProt P16070 21-220); experiment: as above
T6 construct: Bought recombinant protein

[7] = biological target: T7, rHuman ErbB2/Fc Chimera, CF (R&D Systems Cat#1129-ER) (human, UniProt P04626 23-652); experiment: as above
T7 construct: Bought recombinant protein; also called human epidermal growth factor 2 receptor

[8] = biological target: T8, rHuman Notch-1/Fc Chimera, CF (R&D Systems Cat#3647-TK) (human); experiment: as above
T8 construct: Bought recombinant protein

[9] = biological target: T9, rHuman HGF R/c-MET/Fc Chimera, CF (R&D Systems Cat#358-MT/CF) (human, UniProt P08581 25-932); experiment: as above
T9 construct: Bought recombinant protein; also called HGF R/Fc; hepatocyte growth factor receptor

[10] = biological target: T1, Recombinant Human DLL4 (R&D Systems …); experiment: ECL multispot (MSD) assay, antigen spotted on plate, Fab in solution; blank spot of this well 271
[11] = biological target: T2, rHuman EGF R/Fc Chimera, CF (R&D …); experiment: as above
[12] = biological target: T3, rHuman Erythropoietin R/Fc Chimera, CF …; experiment: as above
[13] = biological target: T4, rHuman P-Cadherin/Fc Chimera, CF (R&D …); experiment: as above
[14] = biological target: T5, rHuman IGF-1 sR (insulin-like growth …); experiment: as above
[15] = biological target: T6, rHuman CD44/Fc Chimera, CF (R&D Systems …); experiment: as above
[16] = biological target: T7, rHuman ErbB2/Fc Chimera, CF (R&D …); experiment: as above
[17] = biological target: T8, rHuman Notch-1/Fc Chimera, CF (R&D …); experiment: as above
[18] = biological target: T9, rHuman HGF R/c-MET/Fc Chimera, CF (R&D …); experiment: as above
[19] = biological target: T1, Recombinant Human DLL4 (R&D Systems …); experiment: ECL multispot (MSD) assay, antigen spotted on plate, Fab in solution; blank spot of this well 204
[20] = biological target: T2, rHuman EGF R/Fc Chimera, CF (R&D …); experiment: as above
[21] = biological target: T3, rHuman Erythropoietin R/Fc Chimera, CF …; experiment: as above
[22] = biological target: T4, rHuman P-Cadherin/Fc Chimera, CF (R&D …); experiment: as above
[23] = biological target: T5, rHuman IGF-1 sR (insulin-like growth …); experiment: as above
[24] = biological target: T6, rHuman CD44/Fc Chimera, CF (R&D Systems …); experiment: as above
[25] = biological target: T7, rHuman ErbB2/Fc Chimera, CF (R&D …); experiment: as above
[26] = biological target: T8, rHuman Notch-1/Fc Chimera, CF (R&D …); experiment: as above
[27] = biological target: T9, rHuman HGF R/c-MET/Fc Chimera, CF (R&D …); experiment: as above
[28] = biological target: rHuman CD44/Fc Chimera, CF (R&D Systems Cat#3660-CD) (human, UniProt P16070 21-220); experiment: ECL Multispot (MSD), antigen spotted on plate, Fab in solution; blank spot 206
[29] = biological target: rHuman HGF R/c-MET/Fc Chimera, CF (R&D Systems Cat#358-MT/CF) (human, UniProt P08581 25-932); experiment: as above
[30] = biological target: rHuman Erythropoietin R/Fc Chimera, CF (R&D Systems Cat#963-ER) (human, UniProt P19235 25-250); experiment: as above
[31] = biological target: T10, rHuman Notch-1/Fc Chimera, CF (R&D Systems Cat#3647-TK) (human); experiment: as above
T10 chain: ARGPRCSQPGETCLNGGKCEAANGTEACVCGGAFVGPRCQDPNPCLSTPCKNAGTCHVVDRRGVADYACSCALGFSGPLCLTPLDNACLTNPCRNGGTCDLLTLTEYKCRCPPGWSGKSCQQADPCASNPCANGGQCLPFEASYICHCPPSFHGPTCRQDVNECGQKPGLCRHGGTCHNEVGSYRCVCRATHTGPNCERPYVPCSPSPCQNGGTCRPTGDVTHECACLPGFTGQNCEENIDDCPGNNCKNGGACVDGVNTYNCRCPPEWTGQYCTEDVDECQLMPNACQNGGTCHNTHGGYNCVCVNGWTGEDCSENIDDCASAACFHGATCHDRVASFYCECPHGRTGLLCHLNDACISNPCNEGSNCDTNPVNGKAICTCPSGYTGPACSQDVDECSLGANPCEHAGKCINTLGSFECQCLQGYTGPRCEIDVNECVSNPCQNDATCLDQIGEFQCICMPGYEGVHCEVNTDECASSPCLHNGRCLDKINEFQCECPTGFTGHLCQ

[32] = biological target: rHuman P-Cadherin/Fc Chimera, CF (R&D Systems Cat#861-PC) (human, UniProt P22223 108-654); experiment: as above
[33] = biological target: rHuman P-Cadherin/Fc Chimera, CF (R&D Systems Cat#861-PC) (human, UniProt P22223 108-654); experiment: ECL multispot (MSD) assay, antigen spotted on plate, Fab in solution; blank spot of this well 270
[34] = biological target: T11, rHuman Notch-1/Fc Chimera, CF (R&D Systems Cat#3647-TK) (human); experiment: as above
T11 chain: T10 chain

[35] = biological target: rHuman CD44/Fc Chimera, CF (R&D Systems Cat#3660-CD) (human, UniProt P16070 21-220); experiment: as above
[36] = biological target: rHuman HGF R/c-MET/Fc Chimera, CF (R&D Systems Cat#358-MT/CF) (human, UniProt P08581 25-932); experiment: as above
[37] = biological target: rHuman Erythropoietin R/Fc Chimera, CF (R&D Systems Cat#963-ER) (human, UniProt P19235 25-250); experiment: as above

ECL signal [1]: 2830
ECL signal [2]: 279
ECL signal [3]: 0
ECL signal [4]: 171
ECL signal [5]: 168
ECL signal [6]: 197
ECL signal [7]: 149
ECL signal [8]: 171
ECL signal [9]: 275
ECL signal [10]: 3480
ECL signal [11]: 272
ECL signal [12]: 304
ECL signal [13]: 297
ECL signal [14]: 241
ECL signal [15]: 189
ECL signal [16]: 330
ECL signal [17]: 257
ECL signal [18]: 306
ECL signal [19]: 2120
ECL signal [20]: 237
ECL signal [21]: 329
ECL signal [22]: 208
ECL signal [23]: 197
ECL signal [24]: 96
ECL signal [25]: 157
ECL signal [26]: 334
ECL signal [27]: 272
B1: Fab VH1-46_IGHD6-6*01_IGHJ1*01 S102A/S103P/S104F (APF) & L6_IGKJ1*01 (Fab, V domains shown)
VH: QVQLVQSGAEVKKPGASVKVSCKASGYTFTSYYMHWVRQAPGQGLEWMGIINPSGGSTSYAQKFQGRVTMTRDTSTSTVYMELSSLRSEDTAVYYCAREEYAPFSAEYFQHWGQGTLVTVSS
VL: not shown
notes: Fab made in E. coli (heavy chain in plasmid A with CH1, His6 and Flag tags; kappa light chain in plasmid C); also called APF / parent; H:APF & L:wt

ECL signal [28]: 346
ECL signal [29]: 328
ECL signal [30]: 420
ECL signal [31]: 345
ECL signal [32]: 321
B2: Fab VH1-46_IGHD6-6*01_IGHJ1*01 S102A/S103P/S104F/H111F (APFF) & L6_IGKJ1*01 N93S (Fab, V domains shown)
VH: B1 VH with H111F
VL: EIVLTQSPATLSLSPGERATLSCRASQSVSSYLAWYQQKPGQAPRLLIYDASNRATGIPARFSGSGSGTDFTLTISSLEPEDFAVYYCQQRSSWPPWTFGQGTKVEIKR
notes: also called APFF / N93S

ECL signal [33]: 499
ECL signal [34]: 453
ECL signal [35]: 333
ECL signal [36]: 380
ECL signal [37]: 541
B3: Fab VH1-46_IGHD6-6*01_IGHJ1*01 S102A/S103P/S104F/H111F (APFF) & L6_IGKJ1*01 N93Y (Fab, V domains shown)
VH: B1 VH with H111F
VL: B2 VL with S93Y
notes: Fab made in E. coli (heavy chain in plasmid A with CH1, His6 and Flag tags; kappa light chain in plasmid C); also called APFF / N93Y
